According to the nanobody polyreactivity screen of Harvey et al. (2022):

assay: yeast display, Sf9 membrane polyspecificity reagent, FACS + sequencing; frameworks hold sequencing errors
In short: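 Synthetic nanobody libraries on Saccharomyces cerevisiae BJ5465 were galactose-induced for 36–48 hours, stained 1 hour at 4 °C with 10% biotinylated, detergent-solubilized Sf9 membrane reagent and enriched on streptavidin microbeads. FACS then separated cells into low and high (top ~1%) gates by anti-HA (expression) and streptavidin (reagent binding) fluorescence. Genes were colony-PCR amplified, MiSeq 2 × 250 sequenced and CDR-length filtered. A clone's polyreactivity label is that of its gate of origin.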

Row | Sequence | polyreactivity (PSR sort gate)
1 | QVQLVESGGGLVQAGGSHRLSCAASGRIFVGYTMGWYRQAPGKERELVAAITSGGSTYYADSVKGRFTISRDNAKNTVYLQMNSLNPEDTAVYYCNAAYQFDSYHLGGYGYEYWGQGTQVTVSS | low polyreactivity
2 | QVQLVESGGGLVQAGGSHRLSCAASGRIFVKYAMGWYRQAPGKERELVAAITKSGSSTYYADSVKGRFTISRDNAKITVYLQMNSLKPEDTAVYYCAALTISRSRTGYYWGQGTQVTVSS | low polyreactivity
3 | QVQLVESGGGLVQAGGSHRLSCAASGRINYNYAMGWYRQAPGKERELVAAISGSGGSTYYADSVKARFTISRDNAKNTVYLQMNSLKPEDTAVYYCSTSGPQYDSRNFDYWGQGTQVNVSS | low polyreactivity
4 | QVQLVESGGGLVQAGGSHRLSCAASGRTFKGNAMGWYRQAPGQERELVAAISSRGGRTFYADSVKGRYTISRDNAKNTVYLQMNSLKPDDTAVYDCAAYSPLTKTPDSPVRYDYWGQGTQVTVSS | high polyreactivity
5 | QVQLVESGGGLVQAGGSHRLSCAASGRTFPFYAMGWYRQAPGTERELVADITSSGGSTYYADSVKGRFTISRDNAKNTVYLQMNSLKPEDSAVYYCAADPIDISYWEFDYWGQGTQVTVSS | low polyreactivity
6 | QVQLVESGGGLVQAGGSHRLSCAASGRTFRYNAMGWYRQATGKERELVAAISTRGGSTYYADSVKGRFTISRDNAKNTVYLQMNSLKPEDTAVYYCATKVYSSRYRGYGYWGQGTQVTVSS | high polyreactivity
7 | QVQLVESGGGLVQAGGSHRLSCAASGRTFSGYAMGWYRQAPGKERELVAAISFSGGSTYYADSVKGRFTISRDNAKNTVYLQMNSLKPEDTAVYYCAAEFVRQNYEMDYWGQGTQVTVSS | low polyreactivity
8 | QVQLVESGGGLVQAGGSHRLSCAASGRTFSYNAMGWYRQAPGKERELVASITSSGGGTSYADSVKGRFTISRDNAKNTVYLQMNSLKPEDTAVYYCNRVLPHPDGYGVGARGYWGQGTQVTVSS | high polyreactivity
9 | QVQLVESGGGLVQAGGSHRLSCAASGRTFSYYAMGWYRQAPGKEREMDADISKSGGRTYYADSLKGRFTISRDNAKNTVYLQMNSLKPEDTAVYYCAAGFYWAVYYSVDYWGQGTQVTVSS | high polyreactivity
10 | QVQLVESGGGLVQAGGSHRLSCAASGRTFYRNAMGWYRPAPGKERELVAAITSGGGTTYADSVKGRFTISRDNAKNTVYLQMNSLKPEDTAVYYCAKRYNGRFRLGYEYWGQGTQVTVSS | high polyreactivity
11 | QVQLVESGGGLVQAGGSHRLSCAASGSIFNRYAMGWYRQAPGKERELVAAITAGGSSTYYADSVKGRFTISRDNAKNTVYLQMNSLKPEDTAVYYCNAVWWHPKDYDYWGQGTQVTVSS | low polyreactivity
12 | QVQLVESGGGLVQAGGSHRLSCAASGSIFQSYAMGWYRQAPGKERELVAAIDRSGTSTYYADSVKGRFTISRDNAKNTVYLQMNSLKPEDTAVYYCNTLRRSWQMDYWGQGTQVTVSS | low polyreactivity
13 | QVQLVESGGGLVQAGGSHRLSCAASGSIFRGYAMGWSIQAPGKERELVAAISWRGTSTYYADSVKGRFTISRDNAKNTVYLQMNSLKPEDTAVYYCAADLDGDYYYYGQGNDYWGQGTQVTVSS | low polyreactivity
14 | QVQLVESGGGLVQAGGSHRLSCAASGSIFSTYAMGWYRQAPGKERELVAAITSDGTYADSVKGRFTISRDNARNTVYLQMNSLKPEDTAVYYCAAYYPYTRHGDYWGQGTQVTVSS | low polyreactivity
15 | QVQLVESGGGLVQAGGSHRLSCAASGSIFYKNAMGWYRQAPGKERELVAAITKRGGTTYYADSVKGRFTISRDNAKNTVYLQMNSLKPEDTAVYYCAKYLGPASIVRYEYWGQGTQVTVSS | high polyreactivity
16 | QVQLVESGGGLVQAGGSHRLSCAASGSTYTYNAMGWYRQAPGKERELVAAISSSGGTTYYADSVKGRFTISRDNAKNTVYLQMTSLKPEDTAVYYCAKRWLYTSAFRIMDYWGQGTQVTVSS | high polyreactivity
17 | QVQLVESGGGLVQAGGSHRLSFAASGSLFYWYAMGWYRQAPGKERELVAAITTSGGRTYYADSVKGRFTISRDNAKNTVYLQMNSLIPEDSAVYYCNSAALFRYYDRWKTAYDYWGQGTQVTGSS | high polyreactivity
18 | QVQLVESGGGLVQAGGSHRLSGAASGFIFFYYDMGWYRQAPGKERELVAAISWSGSSTYYADSVNGRFTISRDNAKNTVYLQMNSLNTEDTAVYYCAARYAPSQDWDEYYYWGQGTQVTLSS | low polyreactivity
19 | QVQLVESGGGLVQAGGSHRLSSAASVRIFRGYAMGWYRPAPGKERELVAVISYSGTRTYYADSVKGRFTISRDNAKNTVYLQMNSLKPEDTAVYYCNASANGFKEGYWGQGTQVTVSS | high polyreactivity
20 | QVQLVESGGGLVQAGGSHRVRCAASGRTFSQYDLGWYRQEPGKERELVAAITRSGSRTYYADSVKGRFTISRDNAKNTVYLQMNSLKPEDTAVYYCNARSISRKKGYPPQRRDGYWGQGTQVTVSS | high polyreactivity
21 | QVQLVESGGGLVQAGGSIRLSCAASGFIFQRYSMGWYRQAPGKERELVAAISSSGGSTYYADSVKGRFTISRDNAKNTVYLQMNSLKPEDTAVYYCAARVPPRTLAYYYWGQGTQVTVSS | high polyreactivity
22 | QVQLVESGGGLVQAGGSIRLSCAASGFIIKVYAMGWYRQAPGKERELVAAITWSGGSTYYADSVKGRFTISRDNAKNNVYLQMNSLKPEDTAVYYCNTDAYRYPEYDYWGQGTQVTVSS | low polyreactivity

Row | Sequence | polyreactivity (PSR sort gate)
23 | QVQLVESGGGLVQAGGSIRLSCAASGFTFSQYVMGWYRQAPGKERELVAAISYRGGSTYYADSVKGRFTSARDNAKNTVYLQMNSLQPEDTAVYYGAAVAYSWHNRYDYCGQGTQVTVSS | high polyreactivity
24 | QVQLVESGGGLVQAGGSIRLSCAASGRIFGSYVRGWYRQGPGKESELVAAISRRGGSTYYADSVTWRFTISRDNAKNTVYLQMNSLTPEDTAVYYCAAEFSPSSNPYDYWGQGTQVTVSS | high polyreactivity
25 | QVQLVESGGGLVQAGGSIRLSCAASGRTFGYYAMGWYRQAPGKERELVAAITRTGGSTHYADSVKGRFTISRDNAKNTVYLQMNSLKPEDTAVYYCALDYRYTIPYDYWGQGTQVTVSS | low polyreactivity
26 | QVQLVESGGGLVQAGGSIRLSCAASGSIFWYNAMGWYRQAPGKERELVAGITSGGDTNYADSVKGRFTISRDNAKNTVYLQMNRLKPEDTAVYYCAKRWDGGRRYDYWGQGTQVTVSS | low polyreactivity
27 | QVQLVESGGGLVQAGGSIRLSCAASGSISAEKSMGRDRQAPGKERELVAAITSGGSTDYADSVKGRFTISRDNAKNNVYLQMNSLKPVDTAVSYCAASGRVGPGYWYDYWGQGTQVTVSS | low polyreactivity
28 | QVQLVESGGGLVQAGGSIRLSCAASGSISPQNVMGWYRQAHGKERELVAAITGGGSTNYADSVKGRFTISRDNAKNTVYLQMNSLIPEDTAVYYCAADGRYAYGYNHWGQGTQVTVSS | low polyreactivity
29 | QVQLVESGGGLVQAGGSIRLSCAASGSSFVSYAMGWYRQAPGKERELVATISWRGGSTYYADSVKGRFTISRDNAMNTVYLQMNSLKTEDTAVYYCAADVWHSQYYYGYEYWGQGTQVTVSS | low polyreactivity
30 | QVQLVESGGGLVQAGGSIRLSCAASGSTFCVNAMGWDRQAPGKERELVAVITFTGSRTYYADSVKGRFTISRDNAKNTVYLQMNSLKPEDTAVYYCAADRRRVLYKFDYWGQGTQVTVSS | low polyreactivity
31 | QVQLVESGGGLVQAGGSIRLSCAASGSTFRLYARGWYRQAPGKEREFVAAISFRGGSTYYADSVKGRFTISRDYSKNTVYLQMNSLKPEDTAVYYCNADYYYYYSWFNYWGQGTQVTVSS | high polyreactivity
32 | QVQLVESGGGLVQAGGSIRLSCAASGSTIGKNVMGWYRQAPGKERELVAAISARGGRTYYGDSVKGRFTISRDNAKNTVYLQMNSLKPVDTAVYYCNTERSYTGTGRYHSSTAYGYWGQGTQVTVSS | high polyreactivity
33 | QVQLVESGGGLVQAGGSIRLSCAASGSTSYIKVMGWYRQAPGKEREMVATISSSGGNTYYADSVKGRFTISRDNAKNTVYLQMNSLKPEDTAVYYCAAKVRVWYYRMDSWGQCTQVTVSS | low polyreactivity
34 | QVQLVESGGGLVQAGGSIRLSFPASGRTFAYNAMGRYRPAPGKERELVADITSGGSTYYADSVKGRFTISRENAKNTVYLQMNRLKREDTAVYYCAAYPQFWYWDYNYWGQGTQVTVSS | high polyreactivity
35 | QVQLVESGGGLVQAGGSIRLTCAASGRIYEIYTMGWYRQATGKETEFVAGITWSGGSTYYADSVKGRFTISRDNAKNTFYLQMNSLKPEDTAVYYCATDEVYWTGYAPSLFDYWGQGTQVTVSS | low polyreactivity
36 | QVQLVESGGGLVQAGGSIRLTCAASGSIFVFYAMGWYRQAPGKEREFVATITWSGTSTYYADSVKGRFSISRDNAKNTVYLQMNSLKPEDTAVYYCAARYLGGRRSGDYSRYYWGQGTQVTVSS | high polyreactivity
37 | QVQLVESGGGLVQAGGSIRLTCTPSGIIFGTYAMGWYIQAPGKERELVAAISSSGVSTYYADSVKGRFTISRDNAKNTVYLQMNSLKPEDTAVYYCNARGSNGRSDYDYWGQCTQVTVSS | high polyreactivity
38 | QVQLVESGGGLVQAGGSLCLSCAASGIFVYNAMVWYRQAPGKEREFVAAINKSGASTFYADSVKGRFTISRDNAKNTVYLQMNSLKPEDTAVYYCRERDYWGQGTQVTVSS | low polyreactivity
39 | QVQLVESGGGLVQAGGSLGLSCAASGFTFDLYAMGWYRQAPGKERALVAAISWSGGSTRYADSVKGRFTISRDYAKNTVYLQMNSLKPEDTAVYYCARQPRLYFKGKLYGYWGQGTQVTVSS | high polyreactivity
40 | QVQLVESGGGLVQAGGSLGLSCAASGFTFHNYAMGWYRQAPGKERELVAAITWDGGSTYYAVSVKGRFTISRDKAKNTVDLQMNSLKPEDTAVYYCALDPYYYYYGDYNFDYWGQGTQVTVSS | high polyreactivity
41 | QVQLVESGGGLVQAGGSLGLSCAASGRSLIWYAMGWYRQAPGKERELVAAITSGGRTYYADSVKGRFTISRDNAKKTVYLQMNSLKPEDTAVYYCNKVGRDPGRDFWGQGTQVPVSS | high polyreactivity
42 | QVQLVESGGGLVQAGGSLGLSCAASGRTFANNAMGWYRQAPGKERELVARISNSGSTNYADSVKGRFTISRDNAKNTVYLQMNSLKPEDTAVYDCAARIVRLYSRYDYWGQGTQETVSS | low polyreactivity
43 | QVQLVESGGGLVQAGGSLGLSCAASGRTFQQNAMGWYRQAPGKERELVAALNSRGGRTYYADYVKGRFTISRDNAKNTVYLQMNSLKPEDTAVYYCAARYYWGQGTEVTVSS | high polyreactivity
